Reference: the supplement of paper PMC10567573

B1: CLK3 (parent)
chain: FGEDYYGPSRSRHRRRSRERGPYR
B2: SCNN1D (parent)
chain: FLGHHSFSVRPGTEATISIREDEV

Variants of: B1
Assay: protein stability index of a GFP-peptide fusion (GPS, HEK-293T) (PSI 1-6); higher = more stable
Conditions: c terminus: a fixed tail appended
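Note: lentivirally expressed fusions sorted by FACS into six bins by GFP to DsRed ratio, PSI derived from sequencing read proportions per bin multiplied by bin number.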

Variant	protein stability index
FGEDYYGPSRSRHRRRSRMRGPYR [E19M]	4.15
FGEDYYGPSRSRHRRRSRLRGPYR [E19L]	3.42
FGEDYYGPSRSRHRRRSRDRGPYR [E19D]	3.87
FGEDYYGPSRSRHRRRSRPRGPYR [E19P]	4.39
FGEDYYGPSRSRHRRRSRQRGPYR [E19Q]	3.2
FGEDYYGPSRSRHRRRSRVRGPYR [E19V]	4.11
FGEDYYGPSRSRHRRRSRWRGPYR [E19W]	4.71
FGEDYYGPSRSRHRRRSRHRGPYR [E19H]	4.09
FGEDYYGPSRSRHRRRSRCRGPYR [E19C]	4.35
FGEDYYGPSRSRHRRRSRKRGPYR [E19K]	4.05
FGEDYYGPSRSRHRRRSRRRGPYR [E19R]	4.55
FGEDYYGPSRSRHRRRSRNRGPYR [E19N]	3.95
FGEDYYGPSRSRHRRRSRIRGPYR [E19I]	3.96
FGEDYYGPSRSRHRRRSRGRGPYR [E19G]	4.06
FGEDYYGPSRSRHRRRSRTRGPYR [E19T]	3.81
FGEDYYGPSRSRHRRRSRFRGPYR [E19F]	4.17
FGEDYYGPSRSRHRRRSRYRGPYR [E19Y]	3.94
FGEDYYGPSRSRHRRRSRSRGPYR [E19S]	3.65
FGEDYYGPSRSRHRRRSRELGPYR [R20L]	2.45
FGEDYYGPSRSRHRRRSREDGPYR [R20D]	2.56
FGEDYYGPSRSRHRRRSREKGPYR [R20K]	2.62
FGEDYYGPSRSRHRRRSREPGPYR [R20P]	2.65
FGEDYYGPSRSRHRRRSREGGPYR [R20G]	2.21

Variant	protein stability index
FGEDYYGPSRSRHRRRSREWGPYR [R20W]	2.85
FGEDYYGPSRSRHRRRSRENGPYR [R20N]	2.11
FGEDYYGPSRSRHRRRSREEGPYR [R20E]	2.27
FGEDYYGPSRSRHRRRSREIGPYR [R20I]	2.21
FGEDYYGPSRSRHRRRSRECGPYR [R20C]	2.72
FGEDYYGPSRSRHRRRSREHGPYR [R20H]	2.44
FGEDYYGPSRSRHRRRSREQGPYR [R20Q]	2.79
FGEDYYGPSRSRHRRRSREYGPYR [R20Y]	2.3
FGEDYYGPSRSRHRRRSRESGPYR [R20S]	2.24
FGEDYYGPSRSRHRRRSREVGPYR [R20V]	2.22
FGEDYYGPSRSRHRRRSREFGPYR [R20F]	3.04
FGEDYYGPSRSRHRRRSREAGPYR [R20A]	2.47
FGEDYYGPSRSRHRRRSREMGPYR [R20M]	2.3
FGEDYYGPSRSRHRRRSRETGPYR [R20T]	2.39
FGEDYYGPSRSRHRRRSRERGPYK [R24K]	2.62
FGEDYYGPSRSRHRRRSRERGPYM [R24M]	2.85
FGEDYYGPSRSRHRRRSRERGPYW [R24W]	2.18
FGEDYYGPSRSRHRRRSRERGPYL [R24L]	1.96
FGEDYYGPSRSRHRRRSRERGPYY [R24Y]	2.35
FGEDYYGPSRSRHRRRSRERGPYG [R24G]	3.26
FGEDYYGPSRSRHRRRSRERGPYD [R24D]	1.9
FGEDYYGPSRSRHRRRSRERGPYF [R24F]	2.8
FGEDYYGPSRSRHRRRSRERGPYS [R24S]	2.46

Variant	protein stability index
FGEDYYGPSRSRHRRRSRERGPYP [R24P]	3.48
FGEDYYGPSRSRHRRRSRERGPYC [R24C]	1.92
FGEDYYGPSRSRHRRRSRERGPYI [R24I]	2.68
FGEDYYGPSRSRHRRRSRERGPYA [R24A]	2.02
FGEDYYGPSRSRHRRRSRERGPYQ [R24Q]	2.14
FGEDYYGPSRSRHRRRSRERGPYE [R24E]	2.32
FGEDYYGPSRSRHRRRSRERGPYV [R24V]	2.46
FGEDYYGPSRSRHRRRSRERGPYH [R24H]	2.67
FGEDYYGPSRSRHRRRSRERGPYT [R24T]	1.81
FGEDYYGPSRSRHRRRSRERGPYN [R24N]	2.46
FGEDYYGPSRSRHRRRSRERGPTR [Y23T]	2.27
FGEDYYGPSRSRHRRRSRERGPKR [Y23K]	2.3
FGEDYYGPSRSRHRRRSRERGPRR [Y23R]	2.11
FGEDYYGPSRSRHRRRSRERGPNR [Y23N]	2.67
FGEDYYGPSRSRHRRRSRERGPLR [Y23L]	2.16
FGEDYYGPSRSRHRRRSRERGPAR [Y23A]	2.19
FGEDYYGPSRSRHRRRSRERGPVR [Y23V]	3.15
FGEDYYGPSRSRHRRRSRERGPWR [Y23W]	2.46
FGEDYYGPSRSRHRRRSRERGPCR [Y23C]	2.47
FGEDYYGPSRSRHRRRSRERGPHR [Y23H]	2.38
FGEDYYGPSRSRHRRRSRERGPFR [Y23F]	1.65
FGEDYYGPSRSRHRRRSRERGPDR [Y23D]	2.89
FGEDYYGPSRSRHRRRSRERGPQR [Y23Q]	3.46

Variant	protein stability index
FGEDYYGPSRSRHRRRSRERGPIR [Y23I]	2.31
FGEDYYGPSRSRHRRRSRERGPMR [Y23M]	2.48
FGEDYYGPSRSRHRRRSRERGPSR [Y23S]	2.62
FGEDYYGPSRSRHRRRSRERGPPR [Y23P]	2.61
FGEDYYGPSRSRHRRRSRERGPER [Y23E]	2.35
FGEDYYGPSRSRHRRRSRERGPGR [Y23G]	2.43
FGEDYYGPSRSRHRRRSRERQPYR [G21Q]	2.8
FGEDYYGPSRSRHRRRSRERFPYR [G21F]	3.47
FGEDYYGPSRSRHRRRSRERMPYR [G21M]	3.38
FGEDYYGPSRSRHRRRSRERSPYR [G21S]	1.41
FGEDYYGPSRSRHRRRSRERRPYR [G21R]	3.2
FGEDYYGPSRSRHRRRSRERKPYR [G21K]	3.15
FGEDYYGPSRSRHRRRSRERDPYR [G21D]	2.47
FGEDYYGPSRSRHRRRSRERAPYR [G21A]	2.69
FGEDYYGPSRSRHRRRSRERVPYR [G21V]	2.39
FGEDYYGPSRSRHRRRSRERIPYR [G21I]	2.93
FGEDYYGPSRSRHRRRSRERNPYR [G21N]	2.33
FGEDYYGPSRSRHRRRSRERWPYR [G21W]	4.06
FGEDYYGPSRSRHRRRSREREPYR [G21E]	2.11
FGEDYYGPSRSRHRRRSRERPPYR [G21P]	2.95
FGEDYYGPSRSRHRRRSRERTPYR [G21T]	2.53
FGEDYYGPSRSRHRRRSRERYPYR [G21Y]	3.37
FGEDYYGPSRSRHRRRSRERLPYR [G21L]	2.91

Variant	protein stability index
FGEDYYGPSRSRHRRRSRERCPYR [G21C]	3.2
FGEDYYGPSRSRHRRRSRERHPYR [G21H]	3.13
FGEDYYGPSRSRHRRRSRERGLYR [P22L]	2.37
FGEDYYGPSRSRHRRRSRERGFYR [P22F]	2.62
FGEDYYGPSRSRHRRRSRERGAYR [P22A]	2.82
FGEDYYGPSRSRHRRRSRERGIYR [P22I]	2.2
FGEDYYGPSRSRHRRRSRERGMYR [P22M]	2.54
FGEDYYGPSRSRHRRRSRERGQYR [P22Q]	2.65
FGEDYYGPSRSRHRRRSRERGCYR [P22C]	2.8
FGEDYYGPSRSRHRRRSRERGRYR [P22R]	1.97
FGEDYYGPSRSRHRRRSRERGEYR [P22E]	2.05
FGEDYYGPSRSRHRRRSRERGNYR [P22N]	2.54
FGEDYYGPSRSRHRRRSRERGWYR [P22W]	3.26
FGEDYYGPSRSRHRRRSRERGDYR [P22D]	2.8
FGEDYYGPSRSRHRRRSRERGSYR [P22S]	2.21
FGEDYYGPSRSRHRRRSRERGYYR [P22Y]	2.39
FGEDYYGPSRSRHRRRSRERGHYR [P22H]	2.65
FGEDYYGPSRSRHRRRSRERGKYR [P22K]	2.19
FGEDYYGPSRSRHRRRSRERGGYR [P22G]	2.54
FGEDYYGPSRSRHRRRSRERGVYR [P22V]	3.03
FGEDYYGPSRSRHRRRSRERGTYR [P22T]	2.82

Variants of: B2
Assay: as above
Conditions: c terminus: a fixed tail appended

Variant	protein stability index
FLGHHSFSVRPETEATISIREDEV [G12E]	1.88
FLGHHSFSVRPTTEATISIREDEV [G12T]	1.67
FLGHHSFSVRPYTEATISIREDEV [G12Y]	1.15
FLGHHSFSVRPGTGATISIREDEV [E14G]	2.31
FLGHHSFSVRPGTEATIGIREDEV [S18G]	1.47
FLGHHSFSVRPGTEATIHIREDEV [S18H]	1.33
FLGHHSFSVRPGTEATIPIREDEV [S18P]	1.8
FLGHHSFSKRPGTEATISIREDEV [V9K]	2.83
FLGHHSFSERPGTEATISIREDEV [V9E]	2.83
FLGHHSFSSRPGTEATISIREDEV [V9S]	2.12
FLGHHSFSVNPGTEATISIREDEV [R10N]	1.53
FLGHHSFSVAPGTEATISIREDEV [R10A]	1.56
FLGHHSFSVMPGTEATISIREDEV [R10M]	2.03
FLGHHSFSVGPGTEATISIREDEV [R10G]	2.04
FLGHHVFSVRPGTEATISIREDEV [S6V]	1.88
FLGHHTFSVRPGTEATISIREDEV [S6T]	2.02
FLGHHYFSVRPGTEATISIREDEV [S6Y]	2.88
FLGHHSFSVRPGTEATISIREPEV [D22P]	1.74
FLGHHSFSVRPGTEATISIRENEV [D22N]	2.23
FLGHHSFSVRPGTEATISIRESEV [D22S]	1.35
FLGHHSFSVRPGTEATISIRQDEV [E21Q]	1.74
FLGHHSFSVRPGTEATISIRDDEV [E21D]	1.56
FLGHHSFSVRPGTEATISYREDEV [I19Y]	1.52
FLGHHSFSVRPGTEATRSIREDEV [I17R]	2.07
FLGHHSFSVRPGTEATCSIREDEV [I17C]	1.96

Variant	protein stability index
FLGHHSFSVRPGTEATDSIREDEV [I17D]	2.12
FLGHHSFSVRPGTEATPSIREDEV [I17P]	2.19
FLGHHSFSVRPGTEATNSIREDEV [I17N]	1.68
FLGHHSFSVRPGGEATISIREDEV [T13G]	1.25
FLGHHSFSVRPGEEATISIREDEV [T13E]	2.09
FLGHHSFSVRPGMEATISIREDEV [T13M]	1.73
FLGHQSFSVRPGTEATISIREDEV [H5Q]	1.25
FLGHTSFSVRPGTEATISIREDEV [H5T]	1.54
FLGHHSFSVRPGTEATISIREDEH [V24H]	1.76
FLGHHSFSVRPGTEATISIREDEP [V24P]	1.76
FLGHHSFSVRPGTEATISIREDED [V24D]	2.15
FLGHHSFSVRPGTEATISIREDEK [V24K]	1.93
FWGHHSFSVRPGTEATISIREDEV [L2W]	2.4
FDGHHSFSVRPGTEATISIREDEV [L2D]	5.03
FNGHHSFSVRPGTEATISIREDEV [L2N]	3.15
FMGHHSFSVRPGTEATISIREDEV [L2M]	1.95
FLGHHSFEVRPGTEATISIREDEV [S8E]	2.48
FLGHHSFRVRPGTEATISIREDEV [S8R]	1.96
FLGHHSFSVRPGTEAPISIREDEV [T16P]	1.85
FLGHHSFSVRPGTEAYISIREDEV [T16Y]	2.23
FLGHHSFSVRPGTEAHISIREDEV [T16H]	1.87
FLGHHSFSVRPGTEAVISIREDEV [T16V]	2.25
FLGRHSFSVRPGTEATISIREDEV [H4R]	2.68
FLGSHSFSVRPGTEATISIREDEV [H4S]	1.9
FLGFHSFSVRPGTEATISIREDEV [H4F]	3.4

Variant	protein stability index
FLGHHSFSVRKGTEATISIREDEV [P11K]	1.93
FLGHHSFSVRAGTEATISIREDEV [P11A]	1.53
FLGHHSFSVRDGTEATISIREDEV [P11D]	1.88
FLGHHSFSVRHGTEATISIREDEV [P11H]	1.7
FLGHHSPSVRPGTEATISIREDEV [F7P]	4.44
FLGHHSDSVRPGTEATISIREDEV [F7D]	4.41
FLGHHSHSVRPGTEATISIREDEV [F7H]	4.17
FLGHHSFSVRPGTEATISIREDDV [E23D]	2.12
FLGHHSFSVRPGTEATISIREDLV [E23L]	1.66
FLGHHSFSVRPGTEATISIREDIV [E23I]	2.23
FLGHHSFSVRPGTEATISIREDFV [E23F]	2.45
FLGHHSFSVRPGTEATISIREDQV [E23Q]	1.65
FLGHHSFSVRPGTEATISICEDEV [R20C]	2.24
FLGHHSFSVRPGTEATISIFEDEV [R20F]	3.02
ILGHHSFSVRPGTEATISIREDEV [F1I]	4.02
FLLHHSFSVRPGTEATISIREDEV [G3L]	2.28
FLNHHSFSVRPGTEATISIREDEV [G3N]	2.26
FLTHHSFSVRPGTEATISIREDEV [G3T]	2.23
FLCHHSFSVRPGTEATISIREDEV [G3C]	2.51
FLYHHSFSVRPGTEATISIREDEV [G3Y]	3.25
FLFHHSFSVRPGTEATISIREDEV [G3F]	3.48
FLGHHSFSVRPGTELTISIREDEV [A15L]	2.66
FLGHHSFSVRPGTEETISIREDEV [A15E]	1.93
FLGHHSFSVRPGTERTISIREDEV [A15R]	1.88
FLGHHSFSVRPGTEDTISIREDEV [A15D]	2.08
